T1: MdASG1-GST (Malus domestica (apple; library from …, UniProt A0A498KLW2 21-457)
T1 sequence: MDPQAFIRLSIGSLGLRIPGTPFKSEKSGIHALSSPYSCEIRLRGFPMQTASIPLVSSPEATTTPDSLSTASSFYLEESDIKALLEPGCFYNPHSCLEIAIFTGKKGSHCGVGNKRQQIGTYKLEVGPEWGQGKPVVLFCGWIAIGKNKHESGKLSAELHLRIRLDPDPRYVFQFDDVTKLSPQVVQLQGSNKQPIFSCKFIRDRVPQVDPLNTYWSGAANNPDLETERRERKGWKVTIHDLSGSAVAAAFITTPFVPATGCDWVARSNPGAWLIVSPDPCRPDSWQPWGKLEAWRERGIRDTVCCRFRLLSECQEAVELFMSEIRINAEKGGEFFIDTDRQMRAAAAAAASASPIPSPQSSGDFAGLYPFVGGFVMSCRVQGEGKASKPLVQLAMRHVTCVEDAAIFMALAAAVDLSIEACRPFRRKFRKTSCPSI


Target: T1, MdASG1-GST
Assay: EMSA; LightShift Chemiluminescent EMSA kit binding buffer (composition, salt and pH not stated), 24 °C, 15 min
Settings: protein: recombinant; tags: GST (pGEX-4T, N-terminal); label: biotin; blunt

Binder	binding result
Mutant-M1 (dsDNA) DNA 1: GATTACATCTATGTCATCTTAAAGCCAGCTAACTTTCGGGATAAATTACCTTATAC DNA 2: GTATAAGGTAATTTATCCCGAAAGTTAGCTGGCTTTAAGATGACATAGATGTAATC	no binding
p4MdLOX1a-2-M6 (dsDNA) DNA 1: AATTACGCAGGGATTACATCTATGTCATCTTAAAGCCAGCTAACTTTCGGGATAA DNA 2: TTATCCCGAAAGTTAGCTGGCTTTAAGATGACATAGATGTAATCCCTGCGTAATT	no binding
p4MdLOX1a-2 (dsDNA) DNA 1: AATTACGCAGGGATTACATCTATGTCATCTTAAAGCCAGCTAACTTTCGGGATAAACGATTTTGTAC DNA 2: GTACAAAATCGTTTATCCCGAAAGTTAGCTGGCTTTAAGATGACATAGATGTAATCCCTGCGTAATT	binds

— publication PMC11464680, “ABIOTIC STRESS GENE 1 mediates aroma volatiles accumulation by activating MdLOX1a in apple”
